Reference: publication PMC3630103, “Development of a Highly Protective Combination Monoclonal Antibody Therapy against Chikungunya Virus” (PLoS Pathogens, 2013)

B1: CHK-152 (mouse monoclonal antibody) (antibody, V domains shown)
VH: QVQLQQPGAALVKPGASAMMSCKASGYTFTSYWITWVKQRPGQGLEWIGDIYPGTGRTIYKEKFKTKATLTVDTSSSTAFMQLNSLTSEDSAVYYCARGYGSPYYALDYWGQGTSVTVSS
VL: DIVLTQSPASLAVSQGQRATISCKASQSVDYDGDSYVNWYQQKPGQSPKLLIYDASNLESGIPARFSGSGSGTDFTLNIHPVEEEDVATYYCQESNEDPRTFGGGTKLEIK
notes: mouse VH of CHK-152; mouse IgG heavy-chain constant region; mouse VL of CHK-152; mouse light-chain constant region; also called murine CHK-152; mouse CHK-152
B2: CHK-263 (mouse monoclonal antibody) (antibody, V domains shown)
VH: QVQLQQSGAELVKPGASVKISCKASGYAFSSYWMNWVKQRPGKGLEWIGQIYPGDGDTNYNGKFKGKATLTADKSSSTAYMQLSSLTSEDSAVYFCARGGLTIDYWGQGTTLTVSS
VL: DIVLTQSPATLSVTPGDSVSLSCRASQSISDNLHWYQQKSHESPGLLIKYASQSISGIPSRFSGSGSGTDFTLSINSVETEDFGMYFCQQSNSWPYTFGGGTKLEIK
B3: CHK-102 (mouse monoclonal antibody) (antibody, V domains shown)
VH: QVQLQQSGAELVKPGASVKISCKTSGYAFSSFWMHWVKQRPGKGLEWIGQIYPGDGDTNYNGKFKDKATLTADKSSNTAYMQLTSLTSEDSAVYFCARNLLFDYWGQGTTLTVSS
VL: EILMTQSPAILSVSPGERVSFSCRASQSIGSNIHWYQQRTNGSPRLLIKYASESISGIPSRFSGSGSGTDFTLSINSVESEDIADYYCQQNNIWPFTFGSGTKLEIK
B4: CHK-166 (mouse monoclonal antibody) (antibody, V domains shown)
VH: EVRLVESGGGLEQPGGSLKLSCAASGFTFSDYFMYWVRQTPEKRLEWVAYISNGGISTFYSDAVKGRFTISRDNARNTLYLQMSRLKSEDTAIYYCVRQVYGQGYFDYWGQGTTLAVSS
VL: QIVLIQSPAIMSASLGERVTMTCTASSSVSSSYLHWYQQKPGSSPKLWIYSSFSLASGVPARFSGSGSGTSYSLTISTMEAEDAATYYCHQYLRSPWTFGGGSKLEIK

Biological target: CHIKV pE2-E1 (E3-E2-E1) of the CHIKV-LR strain (Chikungunya virus La Reunion 2006 OPY-1 …, strain)
Test: cell-based or functional assay
Conditions: not given

Binder | EC50 of neutralisation of CHIKV-LR (FRNT on NIH 3T3 cells) | EC50 of neutralisation of CHIKV-LR (FRNT on Vero cells) | EC90 of neutralisation of CHIKV-LR (FRNT on Vero cells)
B1 | 0.001 µg/mL | 0.002 µg/mL | 0.01 µg/mL
B2 | 0.002 µg/mL | 0.005 µg/mL | 0.136 µg/mL
B3 | 0.03 µg/mL | 0.014 µg/mL | 0.351 µg/mL
B4 | 0.202 µg/mL | 0.154 µg/mL | 8.6 µg/mL

Biological target: T1, CHIKV 181-25 virion (Chikungunya virus, strain 181/25 …, UniProt Q88628, strain)
T1 construct: E2 envelope glycoprotein of Chikungunya virus strain 181-25, on virions; E1 envelope glycoprotein of Chikungunya virus strain 181-25, on virions; Whole virus particle captured on the plate by the MAb CHK-65; the capsid protein inside the particle is not written as a chain; also called CHIKV virion; virions; copies: 240 + 240
Test: ELISA; virion capture competition ELISA: plates coated with 5 µg/ml CHK-65, 3x10^6 FFU of CHIKV 181-25 captured, incubated with mouse MAbs for one hour, washed, then 125 ng/ml hu-CHK-152, detected with biotin-labeled goat anti-human antibody and HRP-streptavidin
Conditions: one partner purified

Binder | binding result
B1 | binds
